The record followed here is paper PMC1557820 (Nucleic Acids Research, 2006).

This assay has as its target T1, N-terminal domain of S. cerevisiae methionyl-tRNA synthetase (residues 1-160) (S. cerevisiae, UniProt P00958 1-160).
T1 sequence (looked up): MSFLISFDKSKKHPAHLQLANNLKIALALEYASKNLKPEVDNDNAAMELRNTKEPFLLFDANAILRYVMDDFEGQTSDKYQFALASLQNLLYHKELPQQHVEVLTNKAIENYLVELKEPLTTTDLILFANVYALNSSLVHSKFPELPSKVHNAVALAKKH
The assay is described as follows: SEC.

What is called stoichiometry N is the number of molecules, sites or subunits per partner or assembly.

B1: N-terminal domain of S. cerevisiae Arc1p (residues 1-122) (domain or fragment, UniProt P46672 1-122, looked up)
chain: MSDLVTKFESLIISKYPVSFTKEQSAQAAQWESVLKSGQIQPHLDQLNLVLRDNTFIVSTLYPTSTDVHVFEVALPLIKDLVASSKDVKSTYTTYRHILRWIDYMQNLLEVSSTDKLEINHD
For B1, the “stoichiometry N” value is 1.
